Tests used:
Type in all cases: in vivo
[1] = tested on: Arabidopsis thaliana T1 plants; assay: Isoxaflutole tolerance of transgenic Arabidopsis thaliana T1 plants (spray, bleached leaf area grade, damage score); details: for Resistance evaluation / Classification and statistics of the grade of pesticide damage: Grade 0 / Classification and statistics of the grade of pesticide damage: Grade 1 / Classification and statistics of the grade of pesticide damage: Grade 2 / Classification and statistics of the grade of pesticide damage: Grade 3 / Scores: 7 DAT, Table 2; for Classification and statistics of the grade of pesticide damage: Grade 0 / Classification and statistics of the grade of pesticide damage: Grade 1 / Classification and statistics of the grade of pesticide damage: Grade 2 / Classification and statistics of the grade of pesticide damage: Grade 3: number of plants; for Scores: pesticide damage score 0-100;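 for Scores: Weighted damage index from 0 to 100 where higher means more damage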
Procedure, shortened: (§1)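 Damage graded 0–3 from the proportion of bleached leaf area 7 days after spraying. Plants were glufosinate-selected T1 lines, 18 days after sowing, plus vector and wild-type controls. Rates: mesotrione 52.5–420, isoxaflutole 35–280, topramezone 25–200 g ai/ha, with water (0×).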

[2] = tested on: Arabidopsis thaliana T1 plants; assay: Topramezone tolerance of transgenic Arabidopsis thaliana T1 plants (spray, bleached leaf area grade, damage score); details: for Classification and statistics of the grade of pesticide damage: Grade 0 / Classification and statistics of the grade of pesticide damage: Grade 1 / Classification and statistics of the grade of pesticide damage: Grade 2 / Classification and statistics of the grade of pesticide damage: Grade 3: number of plants; for Classification and statistics of the grade of pesticide damage: Grade 0 / Classification and statistics of the grade of pesticide damage: Grade 1 / Classification and statistics of the grade of pesticide damage: Grade 2 / Classification and statistics of the grade of pesticide damage: Grade 3 / Scores / Resistance evaluation: 7 DAT, Table 1; for Scores: pesticide damage score 0-100
Description: T1 transformants were initially selected from the untransformed seeds using a glufosinate selection scheme. The Arabidopsis thaliana T1 plants (AsHPPD-02) into which the AsHPPD-02 nucleotide sequence was introduced, the Arabidopsis thaliana T1 plants (AsHPPDm-F372A-02) into which the AsHPPDm-F372A-02 nucleotide sequence was introduced, the Arabidopsis thaliana T1 plants (AsHPPDm-F383W-02) into which the AsHPPDm-F383W-02 nucleotide sequence was introduced, the Arabidopsis thaliana T1 plants (AsHPPDm-F372A-F383W-02) into which the AsHPPDm-F372A-F383W-02 nucleotide sequence was introduced, the Arabidopsis thaliana T1 plants (DBN11726N) into which the control recombinant expression vector DBN11726N was introduced, and the wild-type Arabidopsis thaliana plants (CK) (18 days after sowing) were sprayed respectively with topramezone at three concentrations (100 g ai/ha (four-fold field concentration, 4×), 200 g ai/ha (eight-fold field concentration, 8×), and 0 g ai/ha (water, 0×)), isoxaflutole at three concentrations (140 g ai/ha (two-fold field concentration, 2×), 280 g ai/ha (four-fold field concentration, 4×), and 0 g ai/ha (water, 0×)), and mesotrione at three concentrations (210 g ai/ha (two-fold field concentration, […]), 420 g ai/ha (four-fold field concentration, 4×), and 0 g ai/ha (water, 0×)), to determine the tolerance of Arabidopsis thaliana to the herbicides. The degree of damage caused by the herbicide was measured for each plant according to the proportion of bleached leaf area (the proportion of bleached leaf area=bleached leaf area/total leaf area×100%) 7 days after spraying (7 DAT): the case where there is basically no bleached phenotype is defined as grade 0, the case where the proportion of bleached leaf area is less than 50% is defined as grade 1, the case where the proportion of bleached leaf area is more than 50% is defined as grade 2, and the case where the proportion of bleached leaf area is 100% grade is defined as grade 3.
According to the method as described above in point 6 of Example 1, the aforementioned Arabidopsis thaliana T1 plants and wild-type Arabidopsis thaliana plants (CK) (18 days after sowing) were sprayed respectively with topramezone at three concentrations (25 g ai/ha (one-fold field concentration, 1×). 100 g ai/ha (four-fold field concentration, 4×), and 0 g ai/ha (water, 0×)), isoxaflutole at three concentrations (35 g ai/ha (half-fold field concentration, 0.5×). 70 g ai/ha (one-fold field concentration, 1×), and 0 g ai/ha (water, 0×)), and mesotrione at three concentrations (52.5 g ai/ha (half-fold field concentration, 0.5×), 105 g ai/ha (one-fold field concentration, 1×), and 0 g ai/ha (water, 0×)) to detect the tolerance of Arabidopsis thaliana to the herbicides.
According to the method as described above in point 6 of Example 1, the aforementioned Arabidopsis thaliana T1 plants and wild-type Arabidopsis thaliana plants (CK) (18 days after sowing) were sprayed with topramezone at three different concentrations (i.e., 100 g ai/ha (four-fold field concentration, 4×), 200 g ai/ha (eight-fold field concentration, 8×) and 0 g ai/ha (water, 0×)), isoxaflutole at three different concentrations (i.e., 140 g ai/ha (two-fold field concentration, 2×), 280 g ai/ha (four-fold field concentration, 4×) and 0 g ai/ha (water, 0×)), and mesotrione at three different concentrations (i.e., 210 g ai/ha (two-fold field concentration, 2×), 420 g ai/ha (four-fold field concentration, 4×) and 0 g ai/ha (water, 0×)) respectively to detect the herbicide tolerance of Arabidopsis thaliana. […]

[3] = tested on: Arabidopsis thaliana T1 plants; assay: Mesotrione tolerance of transgenic Arabidopsis thaliana T1 plants (spray, bleached leaf area grade, damage score); design: Scores: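 damage score 0-100 computed as Σ(N×S)/(T×M)×100 over grades 0-3 with higher meaning more damage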; details: for Resistance evaluation / Classification and statistics of the grade of pesticide damage: Grade 0 / Classification and statistics of the grade of pesticide damage: Grade 1 / Classification and statistics of the grade of pesticide damage: Grade 2 / Classification and statistics of the grade of pesticide damage: Grade 3 / Scores: 7 DAT, Table 3; for Classification and statistics of the grade of pesticide damage: Grade 0 / Classification and statistics of the grade of pesticide damage: Grade 1 / Classification and statistics of the grade of pesticide damage: Grade 2 / Classification and statistics of the grade of pesticide damage: Grade 3: number of plants; for Scores: pesticide damage score 0-100
Procedure, shortened: as §1

[4] = mesotrione 210 g ai/ha (two-fold field concentration)

B1: AsHPPDm-F372A-F383W-02: nucleotide sequence encoding Avena sativa HPPD with F372A+F383W; vector DBN11726 (nucleic acid)
DNA: ATGCCACCTACTCCAGCTACAGCTACTGGTGCTGCTGCTGCTGCCGTTACTCCTGAGCACGCTGCCAGGTCATTCCCCAGGGTGGTTCGCGTGAACCCCAGATCTGATAGGTTCCCAGTTCTGAGCTTCCACCATGTTGAGCTGTGGTGCGCTGATGCTGCTTCTGCTGCTGGCAGGTTCTCTTTCGCTCTTGGTGCTCCACTCGCTGCTAGATCTGATCTGTCTACAGGAAATAGCGCTCATGCCTCACTCCTGCTTCGCTCAGGTGCTTTGGCCTTCCTCTTCACCGCTCCATATGCTCCCCCACCTCAGGAGGCTGCTACTGCTGCTGCTACAGCCTCCATTCCAAGCTTCTCAGCTGATGCCGCTAGAACCTTCGCTGCTGCTCATGGACTTGCCGTGAGGTCTGTTGGTGTTCGCGTGGCTGATGCTGCTGAGGCTTTCAGAGTTTCCGTTGCCGGCGGAGCTAGGCCAGCTTTCGCTCCTGCTGATTTGGGACATGGTTTCGGCCTGGCTGAGGTTGAGCTTTACGGTGACGTGGTTCTCCGCTTCGTGTCTTACCCAGATGAGACTGACCTGCCTTTCCTTCCCGGCTTCGAGAGAGTTTCCTCTCCTGGTGCCGTGGATTACGGCCTGACAAGGTTCGACCACGTGGTTGGAAACGTTCCCGAGATGGCTCCAGTGATCGATTACATGAAGGGCTTCCTTGGATTCCATGAGTTCGCCGAGTTCACTGCTGAGGACGTGGGAACCACTGAGTCCGGTTTGAACTCTGTGGTTCTCGCCAACAATTCTGAGGCTGTTTTGCTCCCTCTGAATGAGCCTGTGCATGGAACCAAGAGGAGAAGCCAGATTCAAACTTACCTGGAGTACCACGGTGGCCCTGGAGTTCAGCATATCGCCCTTGCTTCTAATGATGTGTTGCGCACACTCAGAGAGATGCGCGCCAGAACCCCCATGGGAGGTTTCGAGTTCATGGCCCCACCACAGGCTAAGTACTACGAGGGCGTTAGAAGGATTGCTGGAGACGTGTTGAGCGAGGAGCAGATCAAGGAGTGCCAAGAGCTGGGTGTTCTTGTGGATAGGGATGACCAGGGCGTTCTGCTTCAAATTGCCACTAAGCCAGTGGGCGACCGCCCTACATTCTGGCTTGAGATGATTCAAAGAATCGGCTGCATGGAGAAGGATGAGGTTGGACAGGAGTACCAAAAGGGCGGATGCGGTGGCTTCGGAAAGGGTAACTTCAGCGAGTTGTTCAAGTCAATCGAGGACTACGAGAAGAGCCTCGAGGTGAAGCAGTCAGTGGTTGCCCAAAAGTCCTGA
modifications: AsHPPDm-F372A-F383W-02 Nucleotide Sequence
notes: vector DBN11726
[1]; in vivo
  tolerance to isoxaflutole (in words): different degrees of tolerance
[1]; isoxaflutole 140 g ai/ha (2×)
  Resistance evaluation: highly resistant (highly resistant plants (scores 0-15))
  Classification and statistics of the grade of pesticide damage: Grade 0: 16
  Classification and statistics of the grade of pesticide damage: Grade 1: 0
  Classification and statistics of the grade of pesticide damage: Grade 2: 0
  Classification and statistics of the grade of pesticide damage: Grade 3: 0
  Scores: 0
[1]; isoxaflutole 280 g ai/ha (4×)
  Resistance evaluation: highly resistant (highly resistant plants (scores 0-15))
  Classification and statistics of the grade of pesticide damage: Grade 0: 12
  Classification and statistics of the grade of pesticide damage: Grade 1: 4
  Classification and statistics of the grade of pesticide damage: Grade 2: 0
  Classification and statistics of the grade of pesticide damage: Grade 3: 0
  Scores: 8
[1]; isoxaflutole at four-fold field concentration
  tolerance to isoxaflutole (resistance class): highly-resistant
[1]; isoxaflutole at two-fold field concentration
  tolerance to isoxaflutole (resistance class): highly-resistant
[2]; topramezone 100 g ai/ha (4×)
  Classification and statistics of the grade of pesticide damage: Grade 0: 16
  Classification and statistics of the grade of pesticide damage: Grade 1: 0
  Classification and statistics of the grade of pesticide damage: Grade 2: 0
  Classification and statistics of the grade of pesticide damage: Grade 3: 0
  Scores: 0
  Resistance evaluation: highly resistant (highly resistant plants (scores 0-15))
[2]; topramezone 200 g ai/ha (8×)
  Classification and statistics of the grade of pesticide damage: Grade 0: 16
  Classification and statistics of the grade of pesticide damage: Grade 1: 0
  Classification and statistics of the grade of pesticide damage: Grade 2: 0
  Classification and statistics of the grade of pesticide damage: Grade 3: 0
  Scores: 0
  Resistance evaluation: highly resistant (highly resistant plants (scores 0-15))
[2]; topramezone at four-fold or eight-fold field concentration
  tolerance to topramezone (resistance class): highly-resistant
[3]; in vivo
  tolerance to mesotrione (in words): different degrees of tolerance
[3]; [4]
  Resistance evaluation: highly resistant (highly resistant plants (scores 0-15))
  Classification and statistics of the grade of pesticide damage: Grade 0: 16
  Classification and statistics of the grade of pesticide damage: Grade 1: 0
  Classification and statistics of the grade of pesticide damage: Grade 2: 0
  Classification and statistics of the grade of pesticide damage: Grade 3: 0
  Scores: 0
[3]; mesotrione 420 g ai/ha (4×)
  Resistance evaluation: highly resistant (highly resistant plants (scores 0-15))
  Classification and statistics of the grade of pesticide damage: Grade 0: 15
  Classification and statistics of the grade of pesticide damage: Grade 1: 1
  Classification and statistics of the grade of pesticide damage: Grade 2: 0
  Classification and statistics of the grade of pesticide damage: Grade 3: 0
  Scores: 2
[3]; mesotrione at four-fold field concentration
  tolerance to mesotrione (resistance class): highly-resistant
[3]; mesotrione at two-fold field concentration
  tolerance to mesotrione (resistance class): highly-resistant
